The target in assay [1] is T1, mouse EphA4 extracellular region-SEAP-His protein (mouse). In words: competition ELISA, mouse ligands. The procedure: Antibody A obtained in Example 1 was evaluated for its inhibitory activity against the binding between mouse EphA4 and its mouse ligand according to the following steps. Each well of a 96-well plate (Nunc) was coated with an anti-alkaline phosphatase antibody (Thermo Fisher Scientific). After incubation overnight at 4° C., each well was blocked with 1% BlockAce (DS Pharma Biomedical) at room temperature for 1 hour. After washing with 0.05% Tween 20/PBS (Thermo Fisher Scientific) three times, the mouse EphA4 extracellular region-SEAP-His protein obtained by the method of Example 1 was added (final concentration: 10 nM) to each well and incubated at room temperature for 1 hour. After washing three times, ligands and serially diluted antibody A (0, 0.001, 0.003, 0.01, 0.03, 0.1, 0.3, 1,3, 10, 30, 100, 300, and 1000 nM) or a known EphA4 inhibitor KYL peptide ([…], 0, 0.003, 0.01, 0.03, 0.1, 0.3, 1, 3, 10, 30, and 100 μM, its synthesis was outsourced to Hokkaido System Science) or compound 1 (0, 0.03, 0.1, 0.3, 1,3, 10, 30, 100, 300, and 1000 μM, Formula 1, Matrix Scientific) were added to each well. The ligands used were mouse Ephrin A1-Fc chimera (R&D Systems, final concentration: 20 nM) and mouse Ephrin B2-Fc chimera (R&D Systems, final concentration: 0.6 nM). […] The absorbance at 450 nm was read using a microplate reader (Molecular Devices).
T1 sequence (chain, as listed by the source limits assumed): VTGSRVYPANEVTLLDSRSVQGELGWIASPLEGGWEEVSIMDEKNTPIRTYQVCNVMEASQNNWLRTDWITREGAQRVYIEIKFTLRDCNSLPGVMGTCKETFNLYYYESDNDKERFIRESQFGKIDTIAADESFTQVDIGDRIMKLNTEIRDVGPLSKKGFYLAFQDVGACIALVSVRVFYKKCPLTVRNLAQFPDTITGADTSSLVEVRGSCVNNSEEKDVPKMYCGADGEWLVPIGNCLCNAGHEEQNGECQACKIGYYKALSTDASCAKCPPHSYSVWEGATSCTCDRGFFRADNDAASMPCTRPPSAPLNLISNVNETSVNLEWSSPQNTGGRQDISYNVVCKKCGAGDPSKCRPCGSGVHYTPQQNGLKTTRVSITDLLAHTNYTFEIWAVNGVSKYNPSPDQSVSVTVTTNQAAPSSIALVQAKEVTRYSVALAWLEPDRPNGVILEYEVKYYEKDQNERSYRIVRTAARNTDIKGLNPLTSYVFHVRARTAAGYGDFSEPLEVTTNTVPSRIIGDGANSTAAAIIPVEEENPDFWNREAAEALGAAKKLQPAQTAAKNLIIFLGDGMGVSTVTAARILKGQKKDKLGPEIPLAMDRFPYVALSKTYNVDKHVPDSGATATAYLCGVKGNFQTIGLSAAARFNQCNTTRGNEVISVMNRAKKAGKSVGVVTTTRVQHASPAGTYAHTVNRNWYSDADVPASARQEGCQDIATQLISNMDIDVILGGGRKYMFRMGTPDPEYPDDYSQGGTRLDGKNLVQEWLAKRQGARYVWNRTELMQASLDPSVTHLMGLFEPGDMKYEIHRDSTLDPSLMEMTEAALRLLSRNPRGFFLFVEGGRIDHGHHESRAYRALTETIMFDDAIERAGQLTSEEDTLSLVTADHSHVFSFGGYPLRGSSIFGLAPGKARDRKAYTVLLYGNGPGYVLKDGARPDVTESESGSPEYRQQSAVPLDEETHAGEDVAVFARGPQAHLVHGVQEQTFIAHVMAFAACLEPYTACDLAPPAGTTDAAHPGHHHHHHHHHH
In general terms: ELISA stands for enzyme-linked immunosorbent assay.

Assay [2] concerns the target rat EphA4 in rat hippocampal neurons (rat, UniProt D3ZZK3 20-986). Kind of assay: cell-based or functional assay.
The target in assay [3] is T1, mouse EphA4 extracellular …. Kind of assay: SPR (Biacore T200), mouse EphA4 extracellular region-SEAP-His captured on an anti-His antibody CM5 chip, antibody as analyte at 0.6-50 nM, 1:1 fit. The procedure:
Next, the binding affinity of antibody A-Fab and antibody A-F(ab′)₂ for mouse and human EphA4 was determined by surface plasmon resonance (SPR) using Biacore T200 (GE Healthcare). Antibody A obtained in Example 1 was used as a control for the comparison of each fragment. First, an anti-His tag antibody was immobilized on sensor chip CM5. The immobilization of the anti-His tag antibody on sensor chip CM5 was performed by the amine coupling method using N-hydroxysuccinimide (NHS) and N-ethyl-N′-(3-dimethylaminopropyl)carbodiimide hydrochloride (EDC). Ethanolamine was used in blocking (the sensor chip and the reagents for immobilization were all manufactured by GE Healthcare). The antibody was diluted with a buffer solution for immobilization (10 mM sodium acetate, pH 4.5) into 3 μg/mL and immobilized on the sensor chip according to the protocol attached to Biacore T200.
Mouse or human EphA4 extracellular region-SEAP-His protein was diluted with a running buffer solution HBS-EP (GE Healthcare, BR-1001-88), injected onto a flow cell for 120 seconds, and captured (amount of the protein captured: approximately 10 to 20 RU). Subsequently, antibody A (50, 16.7, 5.6, 1.9, 0.6, and 0 nM), antibody A-Fab (500, 166.7, 55.6, 18.5, 6.2, and 0 nM), or antibody A-F(ab′)₂ (50, 16.7, 5.6, 1.9, 0.6, and 0 nM) serially diluted using HBS-EP was added to the sensor chip for 120 seconds. Binding reaction curves were sequentially observed at the time of the addition (association phase, for 120 sec) and after the completion of the addition (dissociation phase, for 900 sec). After the completion of each observation, the sensor chip was regenerated by the addition of 3 M MgCl₂ (Wako Pure Chemical Industries) (for 30 sec). The obtained binding reaction curves were subjected to fitting analysis with 1:1 binding models using software BIA evaluation attached to the system to calculate the binding affinity (KD=kd/ka) for mouse and human EphA4.
A general note: SPR reads the build-up and loss of mass on a sensor chip optically.

In assay [4] the target is T2, human EphA4 extracellular region-SEAP-His protein (human, UniProt P54764 20-547).
T2 construct: also called hEphA4-SEAP-His
T2 sequence (P54764 20-547): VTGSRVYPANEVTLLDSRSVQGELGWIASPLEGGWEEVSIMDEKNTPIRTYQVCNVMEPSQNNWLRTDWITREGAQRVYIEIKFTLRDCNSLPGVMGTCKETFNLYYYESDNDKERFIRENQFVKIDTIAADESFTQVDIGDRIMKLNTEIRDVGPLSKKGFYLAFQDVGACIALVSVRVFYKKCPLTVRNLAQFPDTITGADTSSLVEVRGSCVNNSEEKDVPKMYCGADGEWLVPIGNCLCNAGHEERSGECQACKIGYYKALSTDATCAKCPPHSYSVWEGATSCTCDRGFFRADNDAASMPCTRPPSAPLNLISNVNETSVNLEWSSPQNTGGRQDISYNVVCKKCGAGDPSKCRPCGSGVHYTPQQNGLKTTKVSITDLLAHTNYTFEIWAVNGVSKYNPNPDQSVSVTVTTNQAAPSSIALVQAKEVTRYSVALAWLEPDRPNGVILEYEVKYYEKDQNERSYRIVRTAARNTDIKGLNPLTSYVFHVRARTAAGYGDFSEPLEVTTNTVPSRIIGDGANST
Kind of assay: SPR (Biacore A100), antibody A captured on a rat anti-mouse IgG1 CM5 chip, human EphA4 extracellular region-SEAP-His as analyte at 0.8-50 nM, 1:1 fit. On the procedure:
(§1) The binding affinity of antibody A obtained in Example 1 for mouse and human EphA4 was determined by surface plasmon resonance (SPR) using Biacore A100 (GE Healthcare). First, a rat anti-mouse IgG₁ antibody produced with a conventional procedure by immunizing rat with a mouse IgG₁ antibody was immobilized on sensor chip CM5. The immobilization of the rat anti-mouse IgG1 antibody on sensor chip CM5 was performed by the amine coupling method using N-hydroxysuccinimide (NHS) and N-ethyl-N′-(3-dimethylaminopropyl)carbodiimide hydrochloride (EDC). Ethanolamine was used in blocking (the sensor chip and the reagents for immobilization were all manufactured by GE Healthcare). The antibody was diluted with a buffer solution for immobilization (10 mM sodium acetate, pH 4.5) into 1 to 2 μg/mL and immobilized on the sensor chip according to the protocol attached to Biacore A100. Antibody A was diluted with a running buffer solution HBS-EP (GE Healthcare, BR-1001-88), injected onto a flow cell for 120 seconds, and captured (amount of the antibody captured: approximately 70 to 100 RU). Subsequently, mouse or human EphA4 extracellular region-SEAP-His serially diluted in the range of 50, 25, 12.5, 6.3, 3.1, 1.6, 0.8, and 0 nM using HBS-EP was added to the sensor chip for 120 seconds. […]

For assay [5], the target named is T2, human EphA4 extracellular …. In words: SPR (Biacore A100), antibody captured, EphA4-SEAP-His analyte. The procedure:
as §1

Assay [6] deals with T1, mouse EphA4 extracellular …. The assay is described as above. On the procedure:
as §1

B1: antibody A (antibody, mouse IgG1, kappa, V domains shown)
VH: QIQLVQSGPELKKPGETVKISCKASGYTFTDYSMHWVKQAPGKGLKWMGWINTETGEPTYADDFKGRFAFSLETSASTAYLQINNLKNEDTATYFCARIPLYYYGSRYWYFDVWGAGTTVTVSS
VL: DIQMTQSPASLSVSVGETVTITCRASENIYRNLAWYQQKQGKSPQLLVYAATNLADGVPSRFSGSGSGTQYSLKINSLQSEDFGSYYCQHFWGTPWTFGGGTKLEIKR
notes: mouse IgG1 heavy chain, kappa light chain; purified from hybridoma supernatant; also called anti-EphA4 monoclonal antibody; antibody A-IgG
Regarding B1, the “fold activity against KYL peptide” value in assay [1] is ≥ 1000 fold. In assay [2], the “IC50 of suppression of EphA4 autophosphorylation induced by mouse EphrinA1 in the hippocampal neurons” value amounted to 24.2 nM. Besides, the dissociation constant (Kd) (usually the concentration at which binding is half-saturated) in assay [3] is 0.147 nM; in assay [5], 0.661 nM; in assay [6], 0.729 nM. Further, the koff (in general, the rate constant with which the complex falls apart) is 0.000423 s⁻¹ in assay [3] and 0.000152 s⁻¹ in assay [4]. The kon (commonly the second-order rate constant of association) in assay [3] came to 2.88e+06 M⁻¹ s⁻¹; in assay [4], 210000 M⁻¹ s⁻¹.
